The target of assay [1] is T1, AA peptide.
T1 construct: The peptide was coated on the Octet sensor; also called peptide with N-terminal alanine and penultimate alanine
In words: BLI (Octet), peptide on sensor, purified protein in solution. From the text: (§1) In the high-throughput assay, Octet sensors are coated with the peptide of interest and dipped in buffer containing the purified protein. An approximation of relative binding can be obtained by comparing the response after 200 seconds for each protein. Each protein has approximately the same molecular mass and is used at the same concentration, so ranking the proteins by response level in this assay gives an approximation of which proteins have improved binding. Studying the on and off-rate can also give insight into the mechanism of binding.

In assay [2] the target is T2, LA peptide.
T2 construct: The peptide was coated on the Octet sensor; also called peptide with N-terminal leucine and penultimate alanine
Described as above.
Description: as §1

Assay [3] deals with T3, VA peptide.
T3 construct: The peptide was coated on the Octet sensor; also called peptide with N-terminal valine and penultimate alanine
The description is as above.
Description: as §1

Assay [4] concerns the target T4, RL peptide (Octet assay of PS621 variants).
T4 construct: RXKLDEESILKQK with X = L
T4 peptide: RLKLDEESILKQK
The assay can be described thus: Octet (BLI), 30 C. From the text:
(§2) Peptides of the sequence RXKLDEESILKQK (SEQ ID NO: 1076) were also used to evaluate the penultimate residue effect.
On the technique in general: Biolayer interferometry detects binding as a change in optical thickness at a sensor tip.

The target in assay [5] is T5, RA peptide (Octet assay of PS621 variants).
T5 construct: X… with X = R
In words: Octet (BLI), 30 C.
Description: as §2

The target of assay [6] is T6, KA peptide (Octet assay of PS621 variants).
T6 construct: XAKLDEESILKQK with X = K
T6 peptide: KAKLDEESILKQK
In words: Octet (BLI), 30 C.

Assay [7] deals with T7, HA peptide (Octet assay of PS621 variants).
T7 construct: XAKLDEESILKQK with X = H
T7 peptide: HAKLDEESILKQK
The assay can be described thus: Octet (BLI), 30 C.

B1: PS557 (other)
chain: MPTAASATESAIEDTPAPARPEVDGRTKPKRQPRYHVVLWNDDDHTYQYVVVMLQSLFGHPPERGYRLAKEVDTQGRVIVLTTTREHAELKRDQIHAFGYDRLLARSKGSMKASIEAEE
notes: Natural parent ClpS protein, expressed in E. coli and purified; also called WT; wild-type protein
Take B1: the “Octet response after 200 sec association” value in assay [1] came to 0.01 nm; in assay [2], 9.8 nm; in assay [3], 5.9 nm.

B2: PS798 (designed binder)
chain: MPTAASATESAIEDTPAPARPEVDGRTKPKRQPRYHVVLWNDDDHTYQYVVVMLQSLFGHPPERGYRLAKEMDTLGRVIVLTTTREHAELKRDQIHAFGYDRLLARSKGSMKASIEAEE
notes: Variant of PS557; also called V72M, Q75L
As to B2, the “Octet response after 200 sec association” value in assay [1] was 3.8 nm; in assay [2], 13.9 nm; in assay [3], 12.9 nm.

B3: PS797 (designed binder)
chain: MPTAASATESAIEDTPAPARPEVDGRTKPKRQPRYHVVLWDDDDHTYQYVVVMLQSLFGHPPERGYRLAKEMDTLGRVIVLTTTREHAELKRDQIHAFGYDRLLARSKGSMKASIEAEE
notes: Variant of PS557; also called N41D, V72M, Q75L
As to B3, the “Octet response after 200 sec association” value in assay [1] was 3.2 nm; in assay [2], 12 nm; in assay [3], 11.2 nm.

B4: PS831 (designed binder)
chain: MPTAASATESAIEDTPAPARPEVDGRTKPKRQPRYHVVLWNDDDHTYQYVVVMLQSLFGHPRKRGYRLAKEMDTLGRVIVLTTTREHAELKRDQIHAFGYDRLLARSKGSMKASIEAEE
notes: Variant of PS557
As for B4, the “Octet response after 200 sec association” value in assay [1] came out at 1.4 nm; in assay [2], 12.2 nm; in assay [3] it was 11 nm.

B5: PS796 (designed binder)
chain: MPTAASATESAIEDTPAPARPEVDGRTKPKRQPRYHVVLWDDDDHTYQYVVVMLQSLFGHPPERGYRLAKEMDTQGRVIVLTTTREHAELKRDQIHAFGYDRLLARSKGSMKASIEAEE
notes: also called N41D, V72M
In the case of B5, the “Octet response after 200 sec association” value in assay [1] came out at 3.5 nm; in assay [2] it was 11.9 nm; in assay [3], 11.3 nm.

B6: PS824 (designed binder)
chain: MPTAASATESAFEDTPAPARPEVDGRTKPKRQPRYHVVLWDDDDHTYQYVVVMLRSLFGHPPERGYRLAKEMDTQGRVIVLTTTREHAELKRDQIHAFGYDRLLARSKGSMKASIEAEE
notes: Variant of PS557
With B6, the “Octet response after 200 sec association” value amounted to 3.9 nm in assay [1], 13.8 nm in assay [2] and 13.3 nm in assay [3].

B7: PS838 (designed binder)
chain: MPTAASATESAIEDTPAPARPEVDGRTKPKRQPRYHVVLWDDDDHTYQYVVVMLQSLFGHPRERGYRLAKEMDTQGRVIVLTTTREHAELKRDQIHAFGYDRLLARSKGSMKASIEAEE
notes: Variant of PS557; also called V72M, N41D, P62R
Turning to B7, the “Octet response after 200 sec association” value was 3 nm in assay [1], 13.4 nm in assay [2] and 11.6 nm in assay [3].

B8: PS852 (designed binder)
chain: MPTAASATESAIEDTPAPARPEVDGRTKPKHQPRYHVVLWDDDDHTYQYVVVMLRSLFGHPPERGYRLAKEMDTQGRVIVLTTTREHAELKRDQIHAFGYDRLLARSKGSMKASIEAEE
notes: Variant of PS557
Consider B8, for which the “Octet response after 200 sec association” value in assay [1] came to 1.7 nm; in assay [2], 9.7 nm; in assay [3], 8.3 nm.

B9: PS801/PS814 (designed binder)
chain: MPTAASATESAIEDTPAPARPEVDGRTKPKRQPRYHVVLWNDDDHTYQYVVVMLQSLFGHPPKRGYRLAKEVDTQGRVIVLTTTREHAELKRDQIHAFGYDRLLARSKGSMKASIEAEE
notes: also called E63K
Consider B9, for which the “Octet response after 200 sec association” value in assay [1] came out at 0.0017 nm; in assay [2], 10.7 nm; in assay [3], 5.73 nm.

B10: PS808 (designed binder)
chain: MPTAASATESAIEDTPAPARPEVDGRTKPKRQPRYHVVLWNDDDHTYQYVVVMLRSLFGHPPERGYRLAKEVDTQGRVIVLTTTREHAELKRDQIHAFGYDRLLARSKGSMKASIEAEE
notes: Variant of PS557; also called Q55R
With B10, the “Octet response after 200 sec association” value in assay [1] was determined as 0.0027 nm; in assay [2], 10.4 nm; in assay [3], 5.71 nm.

B11: PS1106 (designed binder)
chain: MHSKFSHAGRICGAKFKVGEPIYRCKECSFDDTCVLCVNCFNPKDHTGHHVYVTICTEFNNGICDCGDKEAWNHTLFCKAEEG
notes: Variant of PS621
As to B11, the Octet response was 9 in assay [4], 7.6 in assay [5], 4.7 in assay [6] and 0.6 in assay [7].

B12: PS1112 (designed binder)
chain: MHSKFSHAGRICGAKFKVGEPIYRCKECSFDDTCVLCVNCFNPKDHTGHHVYTTICTEFNNGICDCGDKTAWNHTLFCKAEEG
notes: Variant of PS621
For B12, the Octet response in assay [4] came to 9.9; in assay [5], 8.6; in assay [6], 2.3.

B13: PS1117 (designed binder)
chain: MHSKFSHAGRICGAKFKVGEPIYRCKECSFDDTCVLCVNCFNPKDHLGHHVYTTICTEFNNGICDCGDKEAWNHTLFCKAEEG
notes: Variant of PS621
Take B13: the Octet response stood at 9 in assay [4], 8.6 in assay [5], 3.5 in assay [6] and 0.5 in assay [7].

B14: PS1122 (designed binder)
chain: MHSKFSHAGRICGAKFKVGEPIYRCKECSFDDTCVLCVNCFNPKDHLGHHVYTTICTEFNNGECDCGDKTAWNHTLFCKAEEG
notes: Variant of PS621 (T47L, I63E, E70T)
As for B14, the Octet response in assay [4] is 11.2; in assay [5] it was 9.9; in assay [6], 4.6; in assay [7], 1.3.

B15: PS1110 (designed binder)
chain: MHSKFSHAGRICGAKFKVGEPIYRCKECSFDDTCVLCVNCFNPKDHTGHHVYTTICTEFNNGECDCGDKEAWNHTLFCKAEEG
notes: Variant of PS621
On to B15, for which the Octet response in assay [4] came out at 9.8; in assay [5], 7; in assay [6], 6.6; in assay [7] it was 2.4.

B16: PS1114 (designed binder)
chain: MHSKFSHAGRICGAKFKVGEPIYRCKECSFDDTCVLCVNCFNPKDHRGHHVYTTICTERNNGICDCGDKEAWNHTLFCKAEEG
notes: Variant of PS621
In the case of B16, the Octet response was found to be 9.7 in assay [4], 9.2 in assay [5], 5.3 in assay [6] and 1.2 in assay [7].

B17: PS1116 (designed binder)
chain: MHSKFSHAGRICGAKFKVGEPIYRCKECSFDDTCVLCVNCFNPKDHTYHHVYTTICTEFNNGICDCGDKEAWNHTLFCKAEEG
notes: Variant of PS621
Take B17: the figures for the Octet response in assay [4], in assay [5] and in assay [6] were 8.5, 7.1 and 1.2, respectively.

B18: PS1108 (designed binder)
chain: MHSKFSHAGRICGAKFKVGEPIYRCKECSFDDTCVLCVNCFNPKDHTGHHVYTTICTERNNGICDCGDKEAWNHTLFCKAEEG
notes: Variant of PS621
As to B18, the Octet response in assay [4] worked out at 10.3; in assay [5], 8.2; in assay [6] it was 5; in assay [7], 1.2.

B19: PS1109 (designed binder)
chain: MHSKFSHAGRICGAKFKVGEPIYRCKECSFDDTCVLCVNCFNPKDHTGHHVYTTICTEFNKGICDCGDKEAWNHTLFCKAEEG
notes: Variant of PS621
For B19, the Octet response in assay [4] was 10.5; in assay [5], 8.2; in assay [6], 4.7; in assay [7] it was 0.6.

B20: PS1111 (designed binder)
chain: MHSKFSHAGRICGAKFKVGEPIYRCKECSFDDTCVLCVNCFNPKDHTGHHVYTTICTEFNNGICDCGDKSAWNHTLFCKAEEG
notes: Variant of PS621
On to B20, for which the Octet response in assay [4] was 10; in assay [5], 7.9; in assay [6] it was 2.7.

B21: PS1121 (designed binder)
chain: MHSKFSHAGRICGAKFKVGEPIYRCKECSFDDTCVLCVNCFNPKDHKGHHVYTTICTEFNNGICDCGDKEAWNHTLFCKAEEG
notes: Variant of PS621
Consider B21, for which the Octet response was found to be 10.6 in assay [4], 9.5 in assay [5], 5.4 in assay [6] and 2.2 in assay [7].

B22: PS1113 (designed binder)
chain: MHSKFSHAGRICGAKFKVGEPIYRCKECSFDDTCVLCVNCFNPKDHTGHHVYTTICTEFNNGICDCGDKEAWNKTLFCKAEEG
notes: Variant of PS621
As for B22, the Octet response in assay [4] amounted to 9.3; in assay [5], 7.7; in assay [6], 3.8; in assay [7], 0.2.

The record behind these values is patent US20240272170A1 (QUANTUM SI, published 2024).
